Experimental data published in patent US20040253250A1 (XCYTE THERAPIES, published 2004).
Bridge positions count the residues as written; N and C are the ends. Ends that are not written are not given here.

Experiments:
anti-CD3 mAb G19-4 = experiment: ELISA: immobilized G19-4 captures titrated CD3-Ig; detection with anti-human IgG hinge-CH2-CH3 HRP conjugate
[1] = molecular target: CD3εδ-Ig heterodimer (human) (UniProt P07766); experiment: BIACORE (SPR); Affinity (nM)
CD3γ-Ig (human) = CD3γ-Ig (human) (UniProt P09693); experiment: ELISA, anti-CD3 mAb immobilized, fusion protein titrated
Sequence of CD3γ-Ig (human) (P09693 23-116): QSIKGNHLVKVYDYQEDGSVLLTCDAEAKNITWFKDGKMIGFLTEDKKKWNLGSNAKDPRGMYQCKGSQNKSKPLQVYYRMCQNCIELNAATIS

CD3ε-Ig (human) = CD3ε-Ig (human) (UniProt P07766); experiment: as above
Sequence of CD3ε-Ig (human) (P07766 23-126): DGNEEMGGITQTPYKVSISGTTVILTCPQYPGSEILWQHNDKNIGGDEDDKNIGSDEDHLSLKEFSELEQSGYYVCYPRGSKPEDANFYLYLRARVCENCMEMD

[2] = molecular target: CD3εγ-Ig heterodimer (human) (UniProt P07766); experiment: as above
Sequence of CD3εγ-Ig heterodimer (human) (P07766 23-126, chain 1 of 2): as the sequence (P07766 23-126) above
Sequence of CD3εγ-Ig heterodimer (human) (P09693 23-116, chain 2 of 2, further chain): as the sequence (P09693 23-116) above

[3] = molecular target: CD3εδ-Ig heterodimer (human) (UniProt P07766); experiment: as above
[4] = molecular target: CD3εδ-Ig heterodimer (human) (UniProt P07766); experiment: BIACORE (SPR), fusion protein immobilized, peptide in solution; printed as Binding Affinity
CD28huIg = molecular target: T1, CD28huIg (UniProt P10747 19-152); experiment: BIACORE (SPR), fusion protein immobilized, peptide in solution
T1 construct: Immobilized on the BIACORE chip; construct not described; also called CD28Ig; CD28-Ig; not shown: human Ig part (huIg), not further described
Protocol: BIACORE uses surface plasmon resonance (SPR) which occurs when surface plasmon waves are excited at a metal/liquid interface. Light is directed at, and reflected due to bimolecular interactions between analyte (in solution) and ligand (immobilized). CD3εδhuIg, CD3εεhuIg and CD28huIg were covalently immobilized on a carboxymethy dextran chip using EDC/NHS chemistry followed by blocking with ethanol amine. Peptides were dissolved in HBS buffer at pH 7.2 with or without 1% DMSO, and were allowed to pass over these fusion protein-immobilized surfaces. Non-specific binding was substrated by passing these peptides over a controlled surface prepared by immobilizing EDC/NHS alone followed by ethanolamine.

Sequence of CD3εδ-Ig heterodimer (human) (P07766 23-126, stated change not applied, chain 1 of 2): as the sequence (P07766 23-126) above
Sequence of CD3εδ-Ig heterodimer (human) (P04234 22-105, stated change not applied, chain 2 of 2, further chain): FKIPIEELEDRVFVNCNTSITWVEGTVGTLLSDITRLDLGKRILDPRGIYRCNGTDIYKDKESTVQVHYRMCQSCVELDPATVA

In the case of “CD3εγ-Ig heterodimer (from UniProt P07766 23-126; P09693 23-116) (Fc fusion)”, the EC50 (read off the curve) (anti-CD3 mAb G19-4) is reported as 0.8 µg/mL.

In the case of “CD3εδ-Ig heterodimer (from UniProt P07766 23-126; P04234 22-105) (Fc fusion)”, the EC50 (read off the curve) (anti-CD3 mAb G19-4) is reported as 0.1 µg/mL.

For anti-CD3 mAb 64.1 (antibody), the Kd [1] was 7.58 nM.

anti-CD3 mAb BC3 (antibody) gave a Kd [1] of 5.7 nM.

anti-CD3 mAb G19-4 (antibody) was tested, and the Kd [1] was 1.28 nM, the saturating concentration of the fusion protein (CD3γ-Ig (human)) was > 100 µg/mL and the saturating concentration of the fusion protein (CD3ε-Ig (human)) was > 100 µg/mL. For the same molecule, the saturating concentration of the fusion protein [2] was 20 µg/mL and the saturating concentration of the fusion protein [3] was 4 µg/mL.

B1: … (SEQ ID NO:75) (peptide)
peptide: YCYDYDGCY
modifications: disulfide 2-8 (inferred)
With B1 the Kd [4] was 10000 nM.

B2: … (SEQ ID NO:80) (peptide)
peptide: YCFDWKNCY
modifications: disulfide 2-8 (inferred)
For B2, the Kd [4] was 500 nM.

B3: YCYDDHTCY (SEQ ID NO:78) (peptide)
peptide: YCYDDHTCY
modifications: disulfide 2-8 (inferred)
B3: no binding (CD28huIg).

B4: YCYDDHQCY (SEQ ID NO:79) (peptide)
peptide: YCYDDHQCY
modifications: disulfide 2-8 (inferred)
B4: no binding (CD28huIg).

B5: YCFDWKNCY (SEQ ID NO:80) (peptide)
peptide: YCFDWKNCY
modifications: disulfide 2-8 (inferred)
B5: no binding (CD28huIg).

B6: YCYDYDGCY (SEQ ID NO:75) (peptide)
peptide: YCYDYDGCY
modifications: disulfide 2-8 (inferred)
B6: no binding (CD28huIg).

B7: YCYDYDFCY (SEQ ID NO:77) (peptide)
peptide: YCYDYDFCY
modifications: disulfide 2-8 (inferred)
B7: no binding (CD28huIg).

B8: YCYDYDYCY (SEQ ID NO:76) (peptide)
peptide: YCYDYDYCY
modifications: disulfide 2-8 (inferred)
B8: no binding (CD28huIg).
